Experimental data published in article PMC9253770, “The C-Terminal Domain of Y-Box Binding Protein 1 Exhibits Structure-Specific Binding to Poly(ADP-Ribose), Which Regulates PARP1 Activity”.

Target: YB-1 (Δ1-2) (UniProt P67809 1-230)
Assay: fluorescence anisotropy; DNA binding similar to full-length; EC50 within 1100-3100 nM, exact value only in figure; 50 mM Tris-HCl pH 8.0, 40 mM NaCl, 1 mM DTT, 100 ug/ml BSA, 50 nM FAM-DNA, 25 C (anisotropy). PAR EMSA rows left out: PAR is a heterogeneous polymer without a defined nucleic acid sequence
Settings: protein: recombinant; label: 5'-FAM on strand 1; nicked 32-bp duplex, blunt ends; nick opposite strand 1 positions 15/16

YB-1 (Δ1-2), sequence (P67809 1-230, stated change not applied): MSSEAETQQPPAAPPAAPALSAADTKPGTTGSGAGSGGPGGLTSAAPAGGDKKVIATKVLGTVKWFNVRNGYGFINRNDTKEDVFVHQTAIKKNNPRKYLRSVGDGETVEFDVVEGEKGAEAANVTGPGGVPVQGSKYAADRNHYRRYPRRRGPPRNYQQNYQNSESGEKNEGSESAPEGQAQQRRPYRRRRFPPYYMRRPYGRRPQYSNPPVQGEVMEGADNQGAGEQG

B1: Nick (FAM-labeled nicked DNA duplex) (dsDNA)
DNA 1: CCGCTATTTCAACCCTTTGCAGTCCCAGAAGG
DNA 2: GGGTTGAAATAGCGG
DNA 3: CCTTCTGGGACTGCAAA
modifications: phosphate on the 17-mer (printed as 5'-p…)
  binding result: binds
